Measured values reported in PMC4815329, “Biochemical and Molecular Characterization of a Flavonoid 3-O-glycosyltransferase Responsible for Anthocyanins and Flavonols Biosynthesis in Freesia hybrida” (Frontiers in Plant Science, 2016).

What was measured:
[1] = substrate: O=c1c(O)c(-c2ccc(O)c(O)c2)oc2cc(O)cc(O)c12; assay: HPLC of glucoside product, initial rates, Lineweaver-Burk; type: biochemical, Freesia hybrid cultivar; conditions: apparent Km, 10 mM UDP-glucose, 100 mM potassium phosphate pH 8.0, 30°C, 2 min
Text: (§1) HPLC of glucoside product, initial rates, Lineweaver-Burk on Fh3GT1

[2] = substrate: Oc1cc(O)c2cc(O)c(-c3cc(O)c(O)c(O)c3)[o+]c2c1; assay: as above; type: biochemical, Freesia hybrid cultivar; conditions: apparent Km, 10 mM UDP-glucose, 100 mM potassium phosphate pH 8.0, 30°C, 2 min
Text: as §1

B1: Fh3GT1 (Freesia hybrid cultivar) (protein)
chain: MGSADRSHVALLAFPFGTHAAPLLSLGLNLASSAPHGTTFSFLSNRRPVSLPPNSAIKFYEIADGSDPEHEGHVHPEEEVRVFMEETPGNYKKALEAAVDRCGGQRVTCIVADAFLWFVGDIAAEFGVHWVPLWTGGPCSFLAHLYTDMLRNKIGTGKEADPDEDLQFLPGLSGFRVRDLPDDIVTGDLTGAFASLLHRMSIEIPRSAAAIAINTFEGLHPDIDADLASKFKKSLPIGPLNLLNPTLNQPDRFSCLAWLDKFEPHSVAYVSFGTLAALTEAELVELASGLEQSGVPFLWSLKEPGQLPAGFLDRTKDRGLVVPWVPQAEALKHVAVGASLSHCGWNSVMESVTSGVPMLCRPFLGDQTMNARAVSHVWKVGVTFENGTMTRANVAEAMKKVVVGEEGRKMRERAAAIREMAAGSVRPGGSSVQNFKALLDIVIAR
notes: full-length ORF, pET-28a(+), N-terminal His tag, E. coli BL21(DE3), Ni Sepharose purified; cDNA described in Sui et al. 2011; Asn-244 (NPTL) and Asn-386 (NGTM)
Km [1]: 98.47 ± 4.96 µM | kcat [1]: 4.59 ± 0.035 s⁻¹ | kcat/Km [1]: 48500 M⁻¹ s⁻¹ | Km [2]: 58.88 ± 1.68 µM | kcat [2]: 0.53 ± 0.01 s⁻¹ | kcat/Km [2]: 9060 M⁻¹ s⁻¹
